The target of one data set is T1, PpCE20_II (Pedobacter psychrotolerans, UniProt A0A4R2HIK5).
T1 construct: gene EV200_102244; catalytic residues Ser114, Asp518, His520
Nature of the data set: p-nitrophenolate release, stopped with acetonitrile, […] nm. It is filed as biochemical. To be noted: preferred temperature and pH of the enzyme.

Data set [1] has as its target T2, Fl8CE20_II (Salinimicrobium marinum, UniProt A0A918SDW1, Y335N).
T2 construct: gene GCM10007103_17970; pET28a(+), N-terminal 6xHis tag, expressed in E. coli BL21(DE3), SGNH hydrolase with inserted ancillary domain
Nature of the data set: p-nitrophenol release, absorbance […] nm, Michaelis-Menten fit. It is filed as biochemical. The note with it: 50 mM Tris-HCl pH 8.0, 100 mM NaCl, 5% DMSO, room temperature.

Data set [2] has as its target T3, Fl8CE20_II (Salinimicrobium marinum, UniProt A0A918SDW1, K371M).
T3 construct: gene GCM10007103_17970; pET28a(+), N-terminal 6xHis tag, expressed in E. coli BL21(DE3), SGNH hydrolase with inserted ancillary domain
The data set is described as above. The note with it: 50 mM Tris-HCl pH 8.0, 100 mM NaCl, 5% DMSO, room temperature. In kind it is biochemical.

Substrate in the data set “purified protein”: CC(=O)Oc1ccc([N+](=O)[O-])cc1
Nature of the data set: purified protein. It is filed as biochemical, Salinimicrobium marinum. The note with it: 50 mM Tris-HCl pH 8.0, 100 mM NaCl, 5% DMSO, room temperature.

Residue numbers refer to the chain shown, from its start. Names may count otherwise.

T1 sequence (A0A4R2HIK5 entry or part of it): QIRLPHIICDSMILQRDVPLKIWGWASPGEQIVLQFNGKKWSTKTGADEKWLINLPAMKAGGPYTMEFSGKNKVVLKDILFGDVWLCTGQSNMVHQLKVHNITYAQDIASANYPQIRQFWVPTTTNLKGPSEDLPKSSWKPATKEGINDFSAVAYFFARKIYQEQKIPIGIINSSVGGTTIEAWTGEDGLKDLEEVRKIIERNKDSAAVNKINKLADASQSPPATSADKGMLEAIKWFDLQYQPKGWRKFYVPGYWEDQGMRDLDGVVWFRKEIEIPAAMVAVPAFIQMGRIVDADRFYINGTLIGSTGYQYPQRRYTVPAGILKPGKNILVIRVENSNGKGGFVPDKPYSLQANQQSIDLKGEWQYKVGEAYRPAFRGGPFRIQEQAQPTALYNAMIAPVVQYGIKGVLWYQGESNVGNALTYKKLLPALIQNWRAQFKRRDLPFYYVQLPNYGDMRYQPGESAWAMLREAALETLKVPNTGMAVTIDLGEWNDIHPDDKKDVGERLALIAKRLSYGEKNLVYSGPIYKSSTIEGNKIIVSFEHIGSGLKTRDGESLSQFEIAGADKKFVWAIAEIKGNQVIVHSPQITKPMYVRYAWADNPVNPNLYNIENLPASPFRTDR
T3 sequence (A0A918SDW1 entry or part of it K371M): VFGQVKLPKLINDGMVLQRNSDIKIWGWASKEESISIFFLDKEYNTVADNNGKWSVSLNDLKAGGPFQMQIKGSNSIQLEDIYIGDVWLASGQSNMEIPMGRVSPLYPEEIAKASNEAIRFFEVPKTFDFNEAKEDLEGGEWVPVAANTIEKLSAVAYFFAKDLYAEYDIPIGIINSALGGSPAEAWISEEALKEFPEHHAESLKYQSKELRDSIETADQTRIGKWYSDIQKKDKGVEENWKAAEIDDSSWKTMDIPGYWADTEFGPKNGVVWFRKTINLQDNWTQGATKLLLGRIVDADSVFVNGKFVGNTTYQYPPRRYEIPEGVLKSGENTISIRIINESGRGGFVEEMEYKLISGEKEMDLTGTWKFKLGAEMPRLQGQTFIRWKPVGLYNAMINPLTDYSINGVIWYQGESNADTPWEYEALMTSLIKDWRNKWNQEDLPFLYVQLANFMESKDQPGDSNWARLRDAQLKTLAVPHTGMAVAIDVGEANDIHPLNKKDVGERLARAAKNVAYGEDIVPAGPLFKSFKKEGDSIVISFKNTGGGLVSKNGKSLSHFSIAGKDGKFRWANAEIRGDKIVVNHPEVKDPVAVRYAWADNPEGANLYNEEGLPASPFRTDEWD
T2 sequence (A0A918SDW1 entry or part of it Y335N): as the sequence (A0A918SDW1 entry or part of it K371M) above, with Y316N, M352K counted along it

For the molecule `CC(=O)Oc1ccc([N+](=O)[O-])cc1` [pNP-acetate], the KM result was “In terms of biochemical and kinetic behaviour, all enzymes showed similar properties” on PpCE20_II; “mutation of Tyr334 to Asn in the ancillary domain resulted in a decrease in kcat” at Fl8CE20_II [1]; “slight reduction of kcat while showing the same KM as the mutant D513N” on Fl8CE20_II [2].

B1: Fl8CE20_II (Salinimicrobium marinum) (protein)
chain: VFGQVKLPKLINDGMVLQRNSDIKIWGWASKEESISIFFLDKEYNTVADNNGKWSVSLNDLKAGGPFQMQIKGSNSIQLEDIYIGDVWLASGQSNMEIPMGRVSPLYPEEIAKASNEAIRFFEVPKTFDFNEAKEDLEGGEWVPVAANTIEKLSAVAYFFAKDLYAEYDIPIGIINSALGGSPAEAWISEEALKEFPEHHAESLKYQSKELRDSIETADQTRIGKWYSDIQKKDKGVEENWKAAEIDDSSWKTMDIPGYWADTEFGPKNGVVWFRKTINLQDNWTQGATKLLLGRIVDADSVFVNGKFVGNTTYQYPPRRYEIPEGVLKSGENTISIRIINESGRGGFVEEKEYKLISGEKEMDLTGTWKFKLGAEMPRLQGQTFIRWKPVGLYNAMINPLTDYSINGVIWYQGESNADTPWEYEALMTSLIKDWRNKWNQEDLPFLYVQLANFMESKDQPGDSNWARLRDAQLKTLAVPHTGMAVAIDVGEANDIHPLNKKDVGERLARAAKNVAYGEDIVPAGPLFKSFKKEGDSIVISFKNTGGGLVSKNGKSLSHFSIAGKDGKFRWANAEIRGDKIVVNHPEVKDPVAVRYAWADNPEGANLYNEEGLPASPFRTDEWD
notes: pET28a(+), N-terminal 6xHis tag, expressed in E. coli BL21(DE3), SGNH hydrolase with inserted ancillary domain
Consider B1, for which, in “purified protein”, the Michaelis constant (Km) worked out at 620 µM and the kcat was found to be 9.70 s⁻¹.

B2: Fl8CE20_II (Salinimicrobium marinum; R314E) (protein)
chain: B1 chain with R295E
notes: as for B1
Regarding B2, in the data set “purified protein”, the Michaelis-Menten constant (Km) stood at 300 µM and the turnover number (kcat) is 4.67 s⁻¹.

B3: Fl8CE20_II (Salinimicrobium marinum; S435A) (protein)
chain: B1 chain with S416A
notes: as for B1
With B3, in “purified protein”, the Michaelis-Menten constant (Km) came to 210 µM and the turnover number (kcat) worked out at 4.48 s⁻¹.

B4: Fl8CE20_II (Salinimicrobium marinum; D514E) (protein)
chain: B1 chain with D495E
notes: as for B1
With B4, in “purified protein”, the Km was determined as 2300 µM and the kcat worked out at 0.43 s⁻¹.

B5: Fl8CE20_II (Salinimicrobium marinum; D514Q) (protein)
chain: B1 chain with D495Q
notes: as for B1
Turning to B5, in the data set “purified protein”, the Km was 9890 µM and the catalytic constant (kcat) is 0.18 s⁻¹.

B6: Fl8CE20_II (Salinimicrobium marinum; R314Q) (protein)
chain: B1 chain with R295Q
notes: as for B1
Consider B6, for which, in the data set “purified protein”, the Km amounted to 40 µM and the turnover number (kcat) turned out to be 1.3 s⁻¹.

Source of the values: article PMC12313940, “Insights into a water-mediated catalytic triad architecture in CE20 carbohydrate esterases” (Nature Communications, 2025).
